Measurements reported in paper PMC6529188 (Cell, 2019).
Where no end group is shown, it is not given here.

Target: the molecule itself
Assay: SDS-PAGE without boiling of bicelle-reconstituted protein

With PGSLSGIIIGVTVAAVVLIVAVFVCKSLLWKKVLP (domain or fragment, UniProt O14763-1 208-242, looked up) [DR5^TMH (human DR5 isoform 1 residues 208-242, C209G), wild type] as the protein, how does the “stoichiometry N” value read?
Its value is 3.

With PGSLSGIIIGVTVAAVVLIYAVFVCKSLLWKKVLP (domain or fragment, human, UniProt O14763-1 208-242, looked up) [DR5^TMH V227Y mutant] as the protein, how does the “stoichiometry N” value read?
The value was 3.

For PGSLSGIIIYVTVAAVVLIVAVFVCKSLLWKKVLP (domain or fragment, human, UniProt O14763-1 208-242, looked up) [DR5^TMH G217Y mutant], which “stoichiometry N” value is on record?
The value was 3.

Target: the molecule itself
Assay: cross-linking

With PGSLSGIIIGVTVAAVVLIYAVFVCKSLLWKKVLP (domain or fragment, human, UniProt O14763-1 208-242, looked up, also: His6-tagged, active amine groups blocked with Sulfo-NHS Acetate) [His6-tagged DR5^TMH V227Y mutant (for OG-label)] as the protein, how does the “stoichiometry N” value read?
Its value is 6.

How did the “stoichiometry N” value turn out when PGSLSGIIIYVTVAAVVLIVAVFVCKSLLWKKVLP (domain or fragment, human, UniProt O14763-1 208-242, looked up, also: His6-tagged, active amine groups blocked with Sulfo-NHS Acetate) [His6-tagged DR5^TMH G217Y mutant (for OG-label)] was run?
The value was 3.

PGSLSGIIIGVTVAAVVLIVAVFVCKSLLWKKVLP (domain or fragment, human, UniProt O14763-1 208-242, looked up, also: His6-tagged, active amine groups blocked with Sulfo-NHS Acetate) [His6-tagged DR5^TMH, wild type (for OG-label)] was tested. Which “stoichiometry N” value did it give?
Its value is 6.
